The text below walks through data of patent US20190233508A1 (Eli Lilly, published 2019).

This assay addresses T1, Recombinant human IL-21 protein (25-155) (human, UniProt Q9HBE4 32-162).
T1 construct: also called recombinant IL-21; IL-21 recombinant protein
Kind of assay: Quanterix Simoa sandwich pairing against recombinant IL-21 reference curve (100 ng/mL-1.0 fg/mL). As for the experimental part: The antibodies of the present invention, AbM2, Ab2-1, and Ab3-1, are conjugated to beads (Quanterix Cat #101360) at 0.5 mg/mL and are biotinylated according to the manufacturer's protocol at a ratio of 40 to 1 biotin to antibody. Nine combinations of the three antibody pairs are generated and analyzed against a recombinant IL-21 reference curve (100 ng/mL-1.0 fg/mL). The beads are diluted in bead diluent (Quanterix, Cat #100458) and the detection antibodies are diluted in sample/detection buffer (Quanterix, Cat #101359). Two pairs of antibodies are moved into further optimization due to the ability to discriminate IL-21 concentrations in the fg/mL range. The first pair is Ab2-1 and AbM2 which perform well in either orientation. The second pair is Ab3-21 as capture and Ab2-1 as detection.

T1 sequence (Q9HBE4 other isoform, or with tags, fused parts or gaps limits assumed): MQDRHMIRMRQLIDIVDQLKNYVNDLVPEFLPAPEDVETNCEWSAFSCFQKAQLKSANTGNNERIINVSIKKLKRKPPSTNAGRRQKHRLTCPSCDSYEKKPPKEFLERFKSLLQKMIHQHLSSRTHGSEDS

B1: anti-human IL-21 antibody Ab3-1 (antibody, mouse IgG1, kappa, V domains shown)
VH: QVQLKQSAAELARPGASVKMSCKASGYFFTLYMMHWAKQRPGQNLEWIGYINPSSGYTEYNQKFKDKTTLTADKSSSTAYMQLSSLTSEDSAIYYCLTDFDYWGQGTSLTVSS
VL: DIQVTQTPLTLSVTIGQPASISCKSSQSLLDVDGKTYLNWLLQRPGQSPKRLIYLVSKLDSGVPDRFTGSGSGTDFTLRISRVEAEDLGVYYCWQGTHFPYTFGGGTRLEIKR
notes: also called Ab34; Ab3-21
Take B1: the binding result is recorded as “binds”.

B2: anti-human IL-21 antibody AbM2 (antibody, V domains shown)
VH: QVQLVQSGAEVKKPGASVKVSCKASGYTFTDYWMHWVRQAPGQGLEWMGLIDTSDSYTIYNQKFKGRVTMTRDTSTSTVYMELSSLRSEDTAVYYCARYGPLAMDYWGQGTLVTVSS
VL: DIQMTQSPSSLSASVGDRVTITCRASQDISNYLNWYQQKPGKAPKLLIYYTSRLHSGVPSRFSGSGSGTDFTLTISSLQPEDFATYYCQQFHTLRTFGGGTKVEIKR
notes: In the Simoa assays it is biotinylated (40:1 biotin to antibody)
As to B2, the binding result is on record as “binds”.
